Key:
[1] = system: human OPA1 splice variant 7
[2] = system: human OPA1 splice variant 4
[3] = system: human OPA1 splice variant 8 (A210V polymorphism)
Chain of human OPA1 splice variant 8 (A210V polymorphism) (chain, as listed by the source A210V): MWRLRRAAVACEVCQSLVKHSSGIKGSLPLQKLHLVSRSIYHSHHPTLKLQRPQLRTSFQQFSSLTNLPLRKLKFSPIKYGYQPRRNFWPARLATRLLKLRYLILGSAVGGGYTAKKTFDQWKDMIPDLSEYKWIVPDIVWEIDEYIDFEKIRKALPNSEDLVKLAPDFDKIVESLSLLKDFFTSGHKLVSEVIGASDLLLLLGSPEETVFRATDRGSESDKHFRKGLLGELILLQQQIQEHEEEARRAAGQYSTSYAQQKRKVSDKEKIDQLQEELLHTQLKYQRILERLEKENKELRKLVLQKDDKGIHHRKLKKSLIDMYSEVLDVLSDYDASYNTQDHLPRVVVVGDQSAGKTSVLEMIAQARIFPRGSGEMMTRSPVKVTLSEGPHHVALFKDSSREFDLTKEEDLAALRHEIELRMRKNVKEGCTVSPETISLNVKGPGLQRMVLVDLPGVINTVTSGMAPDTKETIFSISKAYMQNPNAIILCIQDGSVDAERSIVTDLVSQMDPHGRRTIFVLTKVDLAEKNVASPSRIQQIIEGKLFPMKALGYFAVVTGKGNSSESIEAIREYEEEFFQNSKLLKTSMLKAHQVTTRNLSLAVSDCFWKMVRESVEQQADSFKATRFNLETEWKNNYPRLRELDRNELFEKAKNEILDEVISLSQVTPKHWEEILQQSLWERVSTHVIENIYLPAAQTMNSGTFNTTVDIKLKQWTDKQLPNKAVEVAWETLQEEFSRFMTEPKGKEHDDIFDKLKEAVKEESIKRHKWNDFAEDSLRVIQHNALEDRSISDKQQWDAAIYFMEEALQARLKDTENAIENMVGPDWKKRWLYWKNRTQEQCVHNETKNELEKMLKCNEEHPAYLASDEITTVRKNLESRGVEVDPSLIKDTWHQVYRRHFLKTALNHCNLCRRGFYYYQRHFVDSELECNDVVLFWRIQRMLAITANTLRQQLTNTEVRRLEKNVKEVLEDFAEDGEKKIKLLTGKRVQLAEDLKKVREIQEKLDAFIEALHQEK

Chain of human OPA1 splice variant 7 (chain, as listed by the source mutant): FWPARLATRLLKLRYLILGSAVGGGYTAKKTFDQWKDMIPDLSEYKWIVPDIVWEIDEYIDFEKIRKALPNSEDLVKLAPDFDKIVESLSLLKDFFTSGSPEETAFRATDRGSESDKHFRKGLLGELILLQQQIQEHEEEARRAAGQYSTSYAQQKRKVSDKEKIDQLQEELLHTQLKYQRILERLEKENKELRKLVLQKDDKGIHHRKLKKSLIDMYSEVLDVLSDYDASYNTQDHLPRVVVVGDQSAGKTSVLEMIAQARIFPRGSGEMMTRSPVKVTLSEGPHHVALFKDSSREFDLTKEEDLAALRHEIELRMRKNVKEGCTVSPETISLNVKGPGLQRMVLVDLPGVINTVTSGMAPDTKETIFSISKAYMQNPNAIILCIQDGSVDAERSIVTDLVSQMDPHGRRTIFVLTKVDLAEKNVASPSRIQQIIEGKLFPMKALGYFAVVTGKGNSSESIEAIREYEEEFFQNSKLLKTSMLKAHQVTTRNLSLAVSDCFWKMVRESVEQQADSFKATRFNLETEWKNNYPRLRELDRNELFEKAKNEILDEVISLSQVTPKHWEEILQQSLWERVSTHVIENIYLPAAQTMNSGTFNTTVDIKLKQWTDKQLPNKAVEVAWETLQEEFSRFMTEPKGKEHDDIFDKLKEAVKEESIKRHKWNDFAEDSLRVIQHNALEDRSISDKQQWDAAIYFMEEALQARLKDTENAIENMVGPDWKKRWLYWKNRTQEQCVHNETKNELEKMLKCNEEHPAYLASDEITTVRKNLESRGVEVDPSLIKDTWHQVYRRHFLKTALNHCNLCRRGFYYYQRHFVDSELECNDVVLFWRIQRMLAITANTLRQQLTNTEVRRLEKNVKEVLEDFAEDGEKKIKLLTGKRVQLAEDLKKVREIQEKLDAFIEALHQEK
Chain of human OPA1 splice variant 4 (chain, as listed by the source mutant): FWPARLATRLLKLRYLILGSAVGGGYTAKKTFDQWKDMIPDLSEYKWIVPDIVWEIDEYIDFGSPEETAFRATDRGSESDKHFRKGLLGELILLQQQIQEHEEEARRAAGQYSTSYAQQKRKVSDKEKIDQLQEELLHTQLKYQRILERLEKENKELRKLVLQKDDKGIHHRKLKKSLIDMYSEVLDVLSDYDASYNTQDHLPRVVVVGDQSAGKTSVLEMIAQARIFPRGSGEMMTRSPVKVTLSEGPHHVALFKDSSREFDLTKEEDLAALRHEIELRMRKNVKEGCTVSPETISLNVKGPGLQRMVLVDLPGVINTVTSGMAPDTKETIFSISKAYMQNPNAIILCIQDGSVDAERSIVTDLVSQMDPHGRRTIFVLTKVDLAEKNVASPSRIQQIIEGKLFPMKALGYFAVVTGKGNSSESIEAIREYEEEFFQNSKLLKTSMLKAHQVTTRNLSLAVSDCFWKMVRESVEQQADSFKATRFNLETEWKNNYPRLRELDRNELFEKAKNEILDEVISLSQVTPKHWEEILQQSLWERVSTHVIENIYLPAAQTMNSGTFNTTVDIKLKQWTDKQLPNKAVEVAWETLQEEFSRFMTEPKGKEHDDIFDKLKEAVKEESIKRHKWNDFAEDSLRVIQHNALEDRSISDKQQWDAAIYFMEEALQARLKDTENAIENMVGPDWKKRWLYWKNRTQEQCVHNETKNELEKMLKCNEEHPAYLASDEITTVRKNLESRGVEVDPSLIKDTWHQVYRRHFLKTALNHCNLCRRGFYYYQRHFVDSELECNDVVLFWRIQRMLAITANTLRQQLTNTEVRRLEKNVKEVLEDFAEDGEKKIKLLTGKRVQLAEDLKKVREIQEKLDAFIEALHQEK

Substance	OPA1 processing (western blot, Δyta10Δyta12 yeast) [1]	OPA1 processing (western blot, Δyta10Δyta12 yeast) [2]	OPA1 processing (western blot, Δyta10Δyta12 yeast) [3]
Afg3l1^E567Q/paraplegin^E575Q complex (murine, both subunits proteolytically inactive)	small OPA1 isoforms were not detected when both, Afg 3l1 and paraplegin, or Afg 3l2 and paraplegin, contained point mutations in their proteolytic centres		
Afg3l2^E574Q/paraplegin^E575Q complex (murine, both subunits proteolytically inactive)	small OPA1 isoforms were not detected when both, Afg 3l1 and paraplegin, or Afg 3l2 and paraplegin, contained point mutations in their proteolytic centres		
hetero-oligomeric Afg3l1^E567Q/paraplegin complex (murine)	Slight OPA1 processing, in particular formation of S3, was detectable with both the Afg3l2^E567Q/paraplegin complex and the Afg3l1^E567Q/paraplegin complex	splice variant 4 was processed only to a very minor extent by the Afg3l2^E567Q/paraplegin complex but not by the Afg3l1^E567Q/paraplegin complex	A similar dependency was observed for splice variant 8
hetero-oligomeric Afg3l2^E574Q/paraplegin complex (murine)	Slight OPA1 processing, in particular formation of S3, was detectable with both the Afg3l2^E567Q/paraplegin complex and the Afg3l1^E567Q/paraplegin complex	splice variant 4 was processed only to a very minor extent by the Afg3l2^E567Q/paraplegin complex	A similar dependency was observed for splice variant 8
homo-oligomeric murine Afg3l2 complex (Yta10 (1-61)-Afg3l2 (36-802)-HA)	expression of each of the murine subunits, Afg3l2 or Afg3l1, in Δyta10Δyta12 cells promoted OPA1 processing; expression of Afg3l2 preferentially led to the formation of the S3 isoform	Afg3l1 and Afg3l2 complexes mediated processing of OPA1 splice variants 4 and 8 in a similar manner	Afg3l1 and Afg3l2 complexes mediated processing of OPA1 splice variants 4 and 8 in a similar manner
proteolytically inactive murine Afg3l1^E567Q (Yta10 (1-61)-Afg3l1^E567Q (25-789)-Myc)	Cleavage was abolished when point mutations were introduced in the proteolytic center of Afg3l1 or Afg3l2.		
proteolytically inactive murine Afg3l2^E574Q (Yta10 (1-61)-Afg3l2^E574Q (36-802)-HA)	Cleavage was abolished when point mutations were introduced in the proteolytic center of Afg3l1 or Afg3l2.		

From patent US20100209436
